Source: article PMC5411712

T1: SRF (rSRF) (UniProt P11831 1-508)
T1 sequence: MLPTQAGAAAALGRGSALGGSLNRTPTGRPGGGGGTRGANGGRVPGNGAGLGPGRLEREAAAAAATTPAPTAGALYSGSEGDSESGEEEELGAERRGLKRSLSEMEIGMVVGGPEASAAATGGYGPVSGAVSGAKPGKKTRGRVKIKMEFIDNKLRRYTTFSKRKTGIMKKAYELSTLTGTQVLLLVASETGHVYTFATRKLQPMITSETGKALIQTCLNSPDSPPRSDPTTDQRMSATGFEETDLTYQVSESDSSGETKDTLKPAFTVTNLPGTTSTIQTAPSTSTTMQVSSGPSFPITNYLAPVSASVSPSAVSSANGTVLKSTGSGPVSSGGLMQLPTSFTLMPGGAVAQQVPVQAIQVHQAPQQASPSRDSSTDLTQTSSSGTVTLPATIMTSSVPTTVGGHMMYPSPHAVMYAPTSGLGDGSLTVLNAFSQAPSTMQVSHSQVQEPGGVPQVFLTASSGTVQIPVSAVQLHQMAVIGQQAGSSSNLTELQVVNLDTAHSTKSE

B1: CArG B 20-bp probe (Acta2) (dsDNA)
DNA 1: GAGGTCCCTATATGGTTGTG
DNA 2: CACAACCATATAGGGACCTC
B2: CArG A+B 95-bp probe (Acta2) (dsDNA)
DNA 1: AATTCTGGGGTGTATCTTGCCCTATATGGGATATCGCTCTGACCGTTAACTAGGACTAGCTGAGGGTAGCCTTGTTTGGCTGCATCTGTTTCTTTTCGGCTAGC
DNA 2: GCTAGCCGAAAAGAAACAGATGCAGCCAAACAAGGCTACCCTCAGCTAGTCCTAGTTAACGGTCAGAGCGATATCCCATATAGGGCAAGATACACCCCAGAATT

Legend:
SRF (rSRF);PTEN (rPTEN) [1] = biological target: T2, SRF (rSRF);PTEN (rPTEN) (;, UniProt P11831;P60484 1-508;1-403, |); assay: EMSA; lower mobility complex on adding rPTEN; 10 mM Tris pH 8.0, 1 mM EDTA, 8% glycerol, 10 ul, ~150 ng fluorescein-labelled DNA, 1 h at room temperature; 4-20% Tris-glycine native gel, pH 8.3
SRF (rSRF) [2] = biological target: T1, SRF (rSRF); assay: EMSA; 10 mM Tris pH 8.0, 1 mM EDTA, 8% glycerol, 10 ul, ~150 ng fluorescein-labelled DNA, 1 h at room temperature; 4-20% Tris-glycine native gel, pH 8.3
PTEN (rPTEN) = PTEN (rPTEN) (UniProt P60484 1-403); assay: EMSA; rPTEN alone; 10 mM Tris pH 8.0, 1 mM EDTA, 8% glycerol, 10 ul, ~150 ng fluorescein-labelled DNA, 1 h at room temperature; 4-20% Tris-glycine native gel, pH 8.3
SRF (rSRF);PTEN (rPTEN) [3] = biological target: T2, SRF (rSRF);PTEN (rPTEN); assay: EMSA, supershift and western blot of EMSA; higher mobility complex than rSRF alone; supershifted by PTEN or SRF antibody; 10 mM Tris pH 8.0, 1 mM EDTA, 8% glycerol, 10 ul, ~150 ng fluorescein-labelled DNA, 1 h at room temperature; 4-20% Tris-glycine native gel, pH 8.3
SRF (rSRF) [4] = biological target: T1, SRF (rSRF); assay: EMSA; two bands at 1 ul rSRF; single lower mobility band at saturating 3 ul; 10 mM Tris pH 8.0, 1 mM EDTA, 8% glycerol, 10 ul, ~150 ng fluorescein-labelled DNA, 1 h at room temperature; 4-20% Tris-glycine native gel, pH 8.3

| Binder | binding result (SRF (rSRF);PTEN (rPTEN) [1]) | binding result (SRF (rSRF) [2]) | binding result (PTEN (rPTEN)) | binding result (SRF (rSRF);PTEN (rPTEN) [3]) | binding result (SRF (rSRF) [4]) |
| --- | --- | --- | --- | --- | --- |
| B1 | binds | binds | – | – | – |
| B2 | – | – | no binding | binds | binds |
